Experimental data taken from publication PMC4304120.

Assays:
thrombin [1] = biological target: thrombin
thrombin [2] = assay: SPR; BIAcore T100; thrombin (2000 RU) amine-coupled to a CM5 chip; RGD-hirudin or mutants injected at 30 uL/min in 10 mM HEPES, 150 mM NaCl, 0.005% Surfactant P20, pH 7.5; 1:1 Langmuir fit, KD calculated from ka and kd

Row | Substance | anti-thrombin specific activity (Titration Testing Method, plasma clotting) (thrombin [1]) | Kd (thrombin [2]) | koff (thrombin [2]) | kon (thrombin [2])
1 | RGD-hirudin D55A | 12000 ATU/mg | 1.03 µM | 0.000383 s⁻¹ | 371 M⁻¹ s⁻¹
2 | RGD-hirudin E57A | 11000 ATU/mg | 2.41 µM | 0.000374 s⁻¹ | 155 M⁻¹ s⁻¹
3 | RGD-hirudin I59A | 9000 ATU/mg | 19 µM | 0.00139 s⁻¹ | 73 M⁻¹ s⁻¹
4 | RGD-hirudin Q53A | 14000 ATU/mg | 0.57 µM | 3.37e-05 s⁻¹ | 59.2 M⁻¹ s⁻¹
5 | RGD-hirudin S50A | 16000 ATU/mg | 0.035 µM | 3.94e-05 s⁻¹ | 1120 M⁻¹ s⁻¹
6 | RGD-hirudin Y3A | 4000 ATU/mg | – | 0.00288 s⁻¹ | –
7 | recombinant RGD-hirudin | 18000 ATU/mg | 0.0155 µM | 2.73e-05 s⁻¹ | 1770 M⁻¹ s⁻¹
